From patent publication US20080182978A1, “ANTI-NGF ANTIBODIES AND METHODS USING SAME” (RINAT NEUROSCIENCE CORP, priority 2002, published 2008)
“Also recorded” adds a separate entry of the source.

Key:
[1] = system: moderate to severe pain from osteoarthritis of the knee; experiment: Clinical study, osteoarthritis of the knee: index knee pain VAS, PID/SPID; assay type: in vivo, human
Excerpt: Adult males and females (ages between 35 to 65) who were experiencing moderate-to-severe pain from osteoarthritis of the knee, but were in otherwise overall good health were enrolled in the study. During the screening period, patients were required to discontinue arthritis medications such as NSAIDs, cyclooxygenase type-2 (COX-2) inhibitors, and opiates at least 14 days prior to administration of anti-NGF antibody E3. Patients were allowed to use rescue medications of acetaminophen or ibuprofen with some restrictions based on laboratory findings or past medical history. Some patients took rescue medications during the study, but rescue medications were not consumed for 2 days before and after administration of anti-NGF antibody E3. Thirty-four patients were admitted to the study and assessed as inpatients for on Study Days -1, 1 and 2. Anti-NGF antibody E3 administration occurred on the morning of Day 1. Electronic diaries were used to record index knee pain and rescue medication usage in clinic and at home. Ten patients were treated with placebo. Twenty-four patients were treated with anti-NGF antibody E3: four patients per dose level for 3 μg/kg (cohort 1), 10 μg/kg (cohort 2), and 30 μg/kg (cohort 3); and six patients per dose level for 100 μg/kg (cohort 4) and 300 μg/kg (cohort 5). The placebo used was sterile 0.9% Sodium Chloride Injection, USP (normal saline). Anti-NGF antibody E3 was a frozen liquid formulation consisting of 10 mg/ml antibody in an aqueous solution of 10 mM histidine, 275 mM sucrose, 0.01% polysorbate 20, pH 6.0. One hour prior to IV administration, frozen antibody was thawed and diluted into Sodium Chloride Injection, USP. The volume for each patient was calculated based on the subject's Day -1 weight and assigned dose level, ranging from 3-6 cc for cohort 1, 10-20 cc for cohort 2, 30-60 cc for cohort 3, and 100 cc for cohort 4 and cohort 5. For cohorts 1 and 2, antibody E3 was administered by a slow IV bolus over 3 to 5 minutes, followed with an IV flush of 5 cc Sodium Chloride Injection, USP. For cohorts 3-5, antibody E3 was administered at 100 cc/hour via infusion pump, followed with an IV flush of 5 cc Sodium Chloride Injection, USP and discontinuation of the IV. Within each cohort, the placebo (Sodium Chloride Injection, USP) was administered by slow bolus or continuous infusion in the same fashion as the antibody E3. After two in-patient days, patients were discharged home. […] Periodic safety assessments was performed for 181 days in all patients. Analgesic effects were assessed before dosing and at multiple times after administration of antibody E3. […] Patients were cued 4 times daily and instructed to indicate the level of arthritis pain in the index knee at that moment. […] VAS for index knee pain during walking was completed daily, concurrent with the fourth current index knee pain VAS. Electronic diary for data collection was issued on day -8 and a 7-day screening assessment of electronic diary compliance was performed from day -8 to day -2 to determine success in using the electronic diaries for a given subject. Subjects were instructed to complete 4 diaries per day. The mean VAS recorded during the screening period is used as baseline for assessment of efficacy. Outcome was assessed as change from baseline (pain level during screening period), expressed as pain intensity difference (PID) or summed pain intensity difference (SPID) for different dose levels. Changes from baseline in the activity measurements were analyzed using an analysis of covariance (ANCOVA) model with treatment as the main factor and baseline pain as a covariate. For means and mean changes, comparisons of antibody E3 with placebo was made using Dunnett'[…] was used to assess the dose-response relationship.

NT4/5 = biological target: T1, NT4/5 (Homo sapiens, UniProt P34130); experiment: Mouse E17 nodose neuron survival assay, NT4/5; assay type: cell-based; conditions: NT4/5 400 pM; antibody up to 200 nM; 48 hours
T1 sequence (P34130 81-210): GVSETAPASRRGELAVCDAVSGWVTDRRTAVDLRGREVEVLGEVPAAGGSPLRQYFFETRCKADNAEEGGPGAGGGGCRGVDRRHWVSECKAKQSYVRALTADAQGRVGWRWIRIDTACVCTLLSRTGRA
Description: The ability of antibody E3 to specifically block NGF activity was also evaluated by measurement of the capacity of the antibody to inhibit survival of mouse nodose E17 neurons in the presence of saturating concentrations of BDNF or NT4/5. Survival of nodose neurons is supported by BDNF or NT4/5; therefore, survival of these neurons is a sensitive assay to evaluate the BDNF or NT4/5-blocking ability of the anti-NGF antagonist antibody.
The survival assay was conducted as follows: time mated pregnant Swiss Webster female mice were euthanised by CO2 inhalation. The uterine horns were removed and the embryos (at embryonic day 17 or 18) were extracted and decapitated. The trigeminal and nodose ganglia were dissected and cleaned. The ganglia were then trypsinised, mechanically dissociated and plated at a density of 100-300 cells per well in defined, serum-free medium in 4-well plates (Greiner) coated with poly-L-ornithine and laminin.
E17 nodose neurons were grown either in the absence of added neurotrophic factors (negative control), or with saturating concentrations of BDNF (400 pM) (positive control) or NT4/5 (400 pM) or NGF unrelated growth factor […]. High concentrations of neurotrophins were used, as the goal of this experiment was to test specificity of the antibodies. […]

B1: E3: humanized, affinity matured anti-NGF antagonist antibody; variable regions SEQ ID NO:1 and 2; human IgG2a (A330P331 to S330S331), kappa (antibody, V domains shown)
VH: QVQLQESGPGLVKPSETLSLTCTVSGFSLIGYDLNWIRQPPGKGLEWIGIIWGDGTTDYNSAVKSRVTISKDTSKNQFSLKLSSVTAADTAVYYCARGGYWYATSYYFDYWGQGTLVTVS
VL: DIQMTQSPSSLSASVGDRVTITCRASQSISNNLNWYQQKPGKAPKLLIYYTSRFHSGVPSRFSGSGSGTDFTFTISSLQPEDIATYYCQQEHTLPYTFGQGTKLEIKRT
modifications: human IgG2a constant (A330S/P331S) and kappa constant missing
Summed pain intensity differences (SPID) as compared to baseline ([1]; All E3 doses, Days 2-8): −713
Summed pain intensity differences (SPID) as compared to baseline ([1]; All E3 doses, Days 2-14): −1269
Summed pain intensity differences (SPID) as compared to baseline ([1]; All E3 doses, Days 2-21): −1752
Summed pain intensity differences (SPID) as compared to baseline ([1]; All E3 doses, Days 2-28): −2254
Summed pain intensity differences (SPID) as compared to baseline ([1]; E3 3 μg/kg single administration, Days 2-8): −572
Summed pain intensity differences (SPID) as compared to baseline ([1]; E3 3 μg/kg single administration, Days 2-14): −956
Summed pain intensity differences (SPID) as compared to baseline ([1]; E3 3 μg/kg single administration, Days 2-21): −1048
Summed pain intensity differences (SPID) as compared to baseline ([1]; E3 3 μg/kg single administration, Days 2-28): −1067
Summed pain intensity differences (SPID) as compared to baseline ([1]; E3 10 μg/kg single administration, Days 2-8): −671
Summed pain intensity differences (SPID) as compared to baseline ([1]; E3 10 μg/kg single administration, Days 2-14): −1174
Summed pain intensity differences (SPID) as compared to baseline ([1]; E3 10 μg/kg single administration, Days 2-21): −1623
Summed pain intensity differences (SPID) as compared to baseline ([1]; E3 10 μg/kg single administration, Days 2-28): −2020
Summed pain intensity differences (SPID) as compared to baseline ([1]; E3 30 μg/kg single administration, Days 2-8): −733
Summed pain intensity differences (SPID) as compared to baseline ([1]; E3 30 μg/kg single administration, Days 2-14): −1371
Summed pain intensity differences (SPID) as compared to baseline ([1]; E3 30 μg/kg single administration, Days 2-21): −2042
Summed pain intensity differences (SPID) as compared to baseline ([1]; E3 30 μg/kg single administration, Days 2-28): −2566
Summed pain intensity differences (SPID) as compared to baseline ([1]; E3 100 μg/kg single administration, Days 2-8): −766
Summed pain intensity differences (SPID) as compared to baseline ([1]; E3 100 μg/kg single administration, Days 2-14): −1403
Summed pain intensity differences (SPID) as compared to baseline ([1]; E3 100 μg/kg single administration, Days 2-21): −1996
Summed pain intensity differences (SPID) as compared to baseline ([1]; E3 100 μg/kg single administration, Days 2-28): −2726
Summed pain intensity differences (SPID) as compared to baseline ([1]; E3 300 μg/kg single administration, Days 2-8): −769
Summed pain intensity differences (SPID) as compared to baseline ([1]; E3 300 μg/kg single administration, Days 2-14): −1340
Summed pain intensity differences (SPID) as compared to baseline ([1]; E3 300 μg/kg single administration, Days 2-21): −1869
Summed pain intensity differences (SPID) as compared to baseline ([1]; E3 300 μg/kg single administration, Days 2-28): −2521
summed pain intensity differences (SPID) vs baseline, ANCOVA ([1]; single administration, p<0.05): pain reduction was statistically significant
mean daily pain intensity (VAS) vs baseline ([1]; single i.v. dose 3, 10, 30, 100 or 300 μg/kg, every dose tested): decrease of mean daily pain intensity
duration of pain intensity reduction / pain relief ([1]; single i.v. dose of 100 μg/kg): at least 80 days
survival of E17 nodose neurons promoted by NT4/5 (NT4/5): had no effect; also recorded: did not inhibit
